We go through six molecules from publication PMC10726252, “Structure and biochemical characterization of L-2-hydroxyglutarate dehydrogenase and its role in the pathogenesis of L-2-hydroxyglutaric aciduria” (The Journal of Biological Chemistry, 2023).

Changes are numbered by the printed parent chain. In names and notes the source's numbering stands. A value given as a limit tells only on which side of the number the result lay.

In data set [1] the target is T1, dmL2HGDH (Drosophila melanogaster, UniProt Q9VJ28).
T1 construct: gene L2HGDH; residues 41-455, mitochondrial-targeting peptide (1-40) removed; N-terminal His6-SUMO tag cleaved by ULP1; E. coli; tetramer about 178 kDa
Briefly: inhibition of L-2-HG oxidation, DCIP reduction at […] nm. It is filed as biochemical. As to conditions: read-out: % inhibition at 10 mM.

The target of data set [2] is dmL2HGDH with Cys77 substituted by alanine (Drosophila melanogaster) (UniProt Q9VJ28). Description: not stated; tetrameric state of the Cys77 to alanine mutant in solution (Fig. S11E).
In data set [3] the target is T1, dmL2HGDH. Description: crystal structure, […] Å; absorbance at […] nm. It is filed as binding. As to conditions: FAD co-purified from E. coli expression.
Substrate in the data set “purified protein”: O=C(O)CC[C@H](O)C(=O)O
Briefly: purified protein. It is filed as biochemical, Drosophila melanogaster. As to conditions: 200 μM phenazine methosulfate, 100 μM DCIP, 50 mM Hepes pH 7.5, about 25 °C, corrected for FAD occupancy.

Data set [4] deals with the molecule itself. Description: SEC-MALS; protein solution 2 mg/ml on Superdex 200 10/300; 20 mM Hepes pH 7.4, 200 mM NaCl; 0.4 ml/min. For orientation: Size exclusion chromatography separates by hydrodynamic size, large species first.

Take `O=C(O)C[C@H](O)C(=O)O` [L-MAL]: the inhibition (in general, how much of the control response was suppressed) at 10000 µM at dmL2HGDH [1] was under 30%.
“dmL2HGDH with Cys77 substituted by alanine (from UniProt Q9VJ28 41-455) (enzyme)”: the stoichiometry N (as a rule, a count of units in the complex or per binding partner) in data set [2] stood at 4.
Regarding `Cc1cc2nc3c(=O)[nH]c(=O)nc-3n(C[C@H](O)[C@H](O)[C@H](O)COP(=O)(O)OP(=O)(O)OC[C@H]3O[C@@H](n4cnc5c(N)ncnc54)[C@H](O)[C@@H]3O)c2cc1C` [FAD], the “crystal structure, 2.85 Å; absorbance at 450 nm” value at dmL2HGDH [3] is recorded as “In each monomer, there are an FAD bound at the active site”.

B1: Drosophila melanogaster L-2-hydroxyglutarate dehydrogenase (dmL2HGDH), residues 41-455 (enzyme, UniProt Q9VJ28 41-455, looked up)
chain: GDYDLVVVGGGIVGAASAREIVLRHPSLKVAVLEKECKLAKHQSGHNSGVIHAGIYYKPGTLKARLCVEGMHLAYAYLDEKKIPYKKTGKLIVATDEKEVKLLKDLEKRGIANNVPDLRMIEGSEIQEIEPYCQGVMALHSPHTGIVDWGLVTEHYGQDFKQCGGDIYLDFNVSKFTETKEGTDYPVTIHGAKPGQTVRTKNVLTCGGLQSDLLAEKTGCPRDPRIVPFRGEYLLLTKEKQHMVKGNIYPVPDPRFPFLGVHFTPRMDGSIWLGPNAVLALKREGYTWGDINLFELFDALRYPGFVKMASKYIGFGLSEMSKSWFINLQIKALQKYIPDITEYDIQRGPAGVRAQAMDLDGNLVDDFVFDRGQGSGALAKRVLHCRNAPSPGATSSLAIAKMIADKIENEFSIGK
notes: L-2-hydroxyglutarate dehydrogenase, Drosophila melanogaster, residues 41-455; the N-terminal 1 to 40 residues (mitochondrial-targeting peptide) removed; Gene synthesized by Sangon Biotech; also called WT dmL2HGDH; truncated dmL2HGDH; source: E. coli BL21 Codon-Plus (DE3)-RIPL, purified (Ni-NTA, tag removal by ULP1, Superdex 200); not shown: His6, N-terminal, cleaved; SUMO, N-terminal, cleaved
Take B1: in “purified protein”, the Km (in general, the substrate concentration at which the rate is half of its maximum) was 130 ± 8 µM; the Vmax (in general, the rate approached at saturating substrate) stood at 10.2 µmol/min/mg; the kcat (as a rule, the number of substrate molecules converted per active site and unit of time at saturation) is 7.76 ± 0.11 s⁻¹; the kcat/Km (usually the turnover number divided by the Michaelis constant) was 59700 M⁻¹ s⁻¹. Also, the “stoichiometry N” value in data set [4] was found to be 4.

B2: dmL2HGDH (Drosophila melanogaster; S88A) (protein)
chain: B1 chain with S48A
notes: residues 41-455, mitochondrial-targeting peptide (1-40) removed; N-terminal His6-SUMO tag cleaved by ULP1; E. coli; tetramer about 178 kDa
With B2, in “purified protein”, the Km was 560 ± 150 µM, the Vmax was determined as 1.56 µmol/min/mg, the kcat is 1.19 ± 0.13 s⁻¹ and the kcat/Km stood at 2130 M⁻¹ s⁻¹.

B3: dmL2HGDH (Drosophila melanogaster; R393A) (protein)
chain: B1 chain with R353A
notes: as for B2
B3: in the data set “purified protein”, the Km is 240 ± 30 µM, the Vmax was 5.68 µmol/min/mg, the kcat was determined as 4.34 ± 0.15 s⁻¹ and the kcat/Km is 18100 M⁻¹ s⁻¹.
